In PMC4605295, “The N-terminus of RPA large subunit and its spatial position are important for the 5′->3′ resection of DNA double-strand breaks” (Nucleic Acids Research, 2015):

Target: T1, GST fusion of Xenopus RPA1 (RPA large subunit) (Xenopus, UniProt Q01588 1-609)
T1 construct: Xenopus RPA1, large subunit of replication protein A; the gene for the subunit was subcloned into a pGEX vector; In-frame GST fusion from a pGEX vector; also called the large subunit; source: E. coli BL21(DE3), purified (glutathione Sepharose)
Assay: pull-down; GST fusions of RPA subunits or RPA1 regions incubated with His-tagged WRN 1-465, isolated on glutathione Sepharose beads, 4°C 1 h; washed with buffer A + 150 mM NaCl + 0.005% NP-40; Western blot for WRN
Settings: both partners purified

T1 sequence (Q01588 whole entry, the tested form may be a part): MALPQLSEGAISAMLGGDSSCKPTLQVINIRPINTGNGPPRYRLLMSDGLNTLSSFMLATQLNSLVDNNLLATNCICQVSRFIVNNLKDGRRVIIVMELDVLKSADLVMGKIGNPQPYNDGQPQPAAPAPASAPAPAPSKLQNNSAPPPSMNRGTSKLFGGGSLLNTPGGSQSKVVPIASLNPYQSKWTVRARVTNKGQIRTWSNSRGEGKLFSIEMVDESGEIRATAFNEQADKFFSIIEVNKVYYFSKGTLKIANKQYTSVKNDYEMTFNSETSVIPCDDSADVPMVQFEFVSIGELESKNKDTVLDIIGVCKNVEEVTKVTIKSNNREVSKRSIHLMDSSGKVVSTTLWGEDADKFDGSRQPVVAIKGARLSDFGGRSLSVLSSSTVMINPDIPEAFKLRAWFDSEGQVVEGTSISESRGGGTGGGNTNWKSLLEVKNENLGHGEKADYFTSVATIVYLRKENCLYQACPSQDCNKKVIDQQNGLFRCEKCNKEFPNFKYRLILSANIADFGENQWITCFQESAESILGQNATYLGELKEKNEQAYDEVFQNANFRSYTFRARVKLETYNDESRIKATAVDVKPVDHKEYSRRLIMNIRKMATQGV

binding result: binds
B1: His-tagged Xenopus WRN 1-465 (domain or fragment, UniProt O93530 1-465, looked up)
chain: MTSLQRKLPEWMSVKQQEDRIDDAKKSFCKKNILEDNLPFMKFNGSIVYSYESNDCSLLSEDIRSSLLEEDVLGFDIEWPPVYTKGKTGKVALIQVCVSEKKCYLFHISPMAGFPKGLKRLLEDESVRKVGVGIEGDQWKLMSDYELKLKGFIELSEMANQKLRCKEKWTFNGLIKHLFKEQLYKRKSYRCSNWDIFLLTEDQKLYAATDAYAGLLIYKKLEGMDAHESDSFRVGREGVADCKGVKRQLTDLSKGLMDLVNQVPNSFGCYTEAVRAVDILEDLSEKLEELRNIMKEASKAEGNGLHFQNSEDCSKKDKSILHVACKESLAEHKMDCKNADSQNNKDIDSCQNENRDEDFFMTLGISEEELYMMEREDDKKQTNPDYKLNKDSCDTNEEKDMSYVIESDEDFDSEIIKSLEDLDNSTEEALGTGVPQAGLIPAKSVDTVADEEEDEGIEEEDDDDD
